From patent US7544661 (NORTHWESTERN UNIVERSITY, dated 2009)
Ends that are not written are not given here. Asp(CONHC12) = Asp whose side chain is modified with dodecylamine

B1: Asp(CONHC12)-Val-Val-Val-Val-Val-Val-Lys-Lys-Lys-Ser-Gly-Gly-Gly-Tyr-Pro-Val-His-Pro-Ser-Thr (9) (peptide)
peptide: {Asp(CONHC12)}-VVVVVVKKKSGGGYPVHPST
modifications: also: reverse polarity: Asp(CONHC12) built on Rink amide resin, end direction unclear

These binders were tested against T1, recombinant human bone morphogenetic protein-2 (human, UniProt P12643 283-396) (assay: phage ELISA on coated growth factor, anti-M13-HRP; grade of relative binding strength, 1 highest to 4 lowest).
T1 construct: Bought growth factor (Peprotech), physisorbed on microtiter wells for panning and ELISA; also called rh-BMP-2; BMP-2
T1 sequence (P12643 283-396 limits assumed): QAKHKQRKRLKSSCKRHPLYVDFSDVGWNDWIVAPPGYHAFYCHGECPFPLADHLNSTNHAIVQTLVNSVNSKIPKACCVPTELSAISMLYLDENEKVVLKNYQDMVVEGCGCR
PGPTVQG (Tested as M13 phage clone): binds. LHYPFMT (Tested as M13 phage clone): binds. WPALFTH (Tested as M13 phage clone): binds. KVPPANT (Tested as M13 phage clone): binds. PIQPDER (Tested as M13 phage clone): binds. QQTQAQH (Tested as M13 phage clone): binds. PFDPPVR (Tested as M13 phage clone): binds. DVSPAYH (Tested as M13 phage clone): binds.

Each binder was assayed against T2, recombinant human transforming growth factor β1 (human, UniProt P01137 279-390) in the same assay as above.
T2 construct: Bought growth factor (Peprotech), physisorbed on microtiter wells for panning and ELISA; also called rh-TGF-β1; TGF-β1
T2 sequence (P01137 279-390 limits assumed): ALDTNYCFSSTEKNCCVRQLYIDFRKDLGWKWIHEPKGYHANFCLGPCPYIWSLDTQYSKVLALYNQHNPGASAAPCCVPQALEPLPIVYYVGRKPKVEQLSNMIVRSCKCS
LPLGNSH (Tested as M13 phage clone): binds. LRNYSHS (Tested as M13 phage clone): binds. PAPRWIH (Tested as M13 phage clone): binds. GKYPPTS (Tested as M13 phage clone): binds. RVSTWDT (Tested as M13 phage clone): binds. RTTSPTA (Tested as M13 phage clone): binds. AWKSVTA (Tested as M13 phage clone): binds. LPSPIQK (Tested as M13 phage clone): binds. VYRHLPT (Tested as M13 phage clone): binds.

The binders below were run against T1, recombinant human bone morphogenetic … (assay: fluorescence depolarization).
YPVHPST gave a Ka of 1.9e+06 M⁻¹. With KQALTQT the Ka was 210000 M⁻¹.

The binders below were run against T1, recombinant human bone morphogenetic … (assay: cell-based or functional assay).
With B1 the “expression of osteocalcin in mesenchymal stem cells (western blot)” value was 0.5 ratio (binding gels : no binding gels).
